One experiment addresses T1, NLRP3 (UniProt Q96P20 1-1036).
T1 construct: also called Flag-NLRP3; endogenous NLRP3
The experiment is described as follows: co-IP of GFP-TRIM20 variants with NLRP3, HEK293 cells.

The next experiment deals with T2, radiolabeled Myc-TRIM20 (human, UniProt O15553 1-781, [35S] L-methionine label).
T2 construct: In vitro translated for GST pull-down; the peptide array of TRIM20 peptides is also written under this molecule; not shown: Myc tag
T2 sequence: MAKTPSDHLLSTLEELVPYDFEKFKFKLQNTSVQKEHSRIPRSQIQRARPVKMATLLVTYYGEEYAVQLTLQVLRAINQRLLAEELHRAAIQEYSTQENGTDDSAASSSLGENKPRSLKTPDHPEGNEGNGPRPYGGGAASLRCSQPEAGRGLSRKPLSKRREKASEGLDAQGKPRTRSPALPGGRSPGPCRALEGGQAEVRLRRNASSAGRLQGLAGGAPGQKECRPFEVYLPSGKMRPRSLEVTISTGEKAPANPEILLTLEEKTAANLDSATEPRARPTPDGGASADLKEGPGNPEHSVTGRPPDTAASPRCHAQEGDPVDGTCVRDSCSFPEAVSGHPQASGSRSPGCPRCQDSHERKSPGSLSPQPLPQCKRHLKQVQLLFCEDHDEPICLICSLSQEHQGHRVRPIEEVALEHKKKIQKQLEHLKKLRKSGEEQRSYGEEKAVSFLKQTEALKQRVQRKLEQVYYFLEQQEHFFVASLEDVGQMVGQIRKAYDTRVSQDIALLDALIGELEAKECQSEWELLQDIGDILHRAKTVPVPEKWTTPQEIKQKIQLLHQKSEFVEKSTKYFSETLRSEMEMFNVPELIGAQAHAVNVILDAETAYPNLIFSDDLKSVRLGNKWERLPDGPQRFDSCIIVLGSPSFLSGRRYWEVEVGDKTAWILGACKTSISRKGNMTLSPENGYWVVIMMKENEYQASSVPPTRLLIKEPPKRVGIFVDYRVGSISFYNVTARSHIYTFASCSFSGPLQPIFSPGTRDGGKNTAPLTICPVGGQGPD
Description: GST pull-down of radiolabeled Myc-TRIM20.

Data on two molecules can be found in patent US20180236024A1 (STC UNM, published 2018).

T1 sequence (Q96P20 whole entry): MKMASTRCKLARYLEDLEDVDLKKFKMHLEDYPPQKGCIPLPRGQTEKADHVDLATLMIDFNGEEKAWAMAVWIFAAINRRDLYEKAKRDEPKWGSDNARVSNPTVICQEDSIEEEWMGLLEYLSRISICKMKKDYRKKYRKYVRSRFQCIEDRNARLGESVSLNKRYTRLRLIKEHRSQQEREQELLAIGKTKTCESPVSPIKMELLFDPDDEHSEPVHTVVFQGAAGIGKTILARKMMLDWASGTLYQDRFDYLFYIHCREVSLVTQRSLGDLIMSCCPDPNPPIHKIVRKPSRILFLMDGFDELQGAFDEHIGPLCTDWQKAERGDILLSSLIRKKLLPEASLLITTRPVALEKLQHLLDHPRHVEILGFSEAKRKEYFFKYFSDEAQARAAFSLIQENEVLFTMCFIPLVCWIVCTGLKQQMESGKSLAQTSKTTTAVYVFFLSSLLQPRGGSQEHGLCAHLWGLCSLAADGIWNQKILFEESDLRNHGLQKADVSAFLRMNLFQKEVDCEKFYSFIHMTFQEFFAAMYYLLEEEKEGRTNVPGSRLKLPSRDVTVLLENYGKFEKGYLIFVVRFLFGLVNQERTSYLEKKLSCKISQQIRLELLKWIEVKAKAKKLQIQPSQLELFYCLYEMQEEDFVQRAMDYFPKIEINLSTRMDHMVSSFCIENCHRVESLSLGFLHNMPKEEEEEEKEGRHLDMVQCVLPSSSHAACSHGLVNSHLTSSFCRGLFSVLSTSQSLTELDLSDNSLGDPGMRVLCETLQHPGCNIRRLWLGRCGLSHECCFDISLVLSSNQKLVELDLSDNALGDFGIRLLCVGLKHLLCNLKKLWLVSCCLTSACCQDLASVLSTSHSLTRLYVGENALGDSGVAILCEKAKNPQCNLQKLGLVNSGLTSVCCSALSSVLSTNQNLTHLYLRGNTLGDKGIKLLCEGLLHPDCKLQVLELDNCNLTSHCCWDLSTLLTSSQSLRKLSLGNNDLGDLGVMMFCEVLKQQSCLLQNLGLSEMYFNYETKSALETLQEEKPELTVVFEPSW

B1: GFP-TRIM20 (full-length human TRIM20) (other)
chain: T2 sequence
notes: also called T20; wild type TRIM20; not shown: GFP tag
On to B1, for which, in the experiment with NLRP3, the binding result is recorded as “binds”.

B2: GST-GABARAP (other)
chain: MKFVYKEEHPFEKRRSEGEKIRKKYPDRVPVIVEKAPKARIGDLDKKKYLVPSDLTVGQFYFLIRKRIHLRAEDALFFFVNNVIPPTSATMGQLYQEHHEEDFFLYIAYSDESVYGL
notes: GST fusion made in E. coli; not shown: GST tag
B2: the binding result in the experiment with radiolabeled Myc-TRIM20 is “binds”.
